Reference: the RNAGym collection of RNA variant scans (doi:10.1093/molbev/msab373)

B1: Azoarcus group I ribozyme (parent)
chain: GUGCCUUGCGCCGGGAAACCACGCAAGGGAUGGUGUCAAAUUCGGCGAAACCUAAGCGCCCGCCCGGGCGUAUGGCAACGCCGAGCCAAGCUUCGGCGCCUGCGCCGAUGAAGGUGUAGAGACUAGACGGCACCCACCUAAGGCAAACGCUAUGGUGAAGGCAUAGUCCAGGGAGUGGCGAAAGUCACACAAACCGG

Variants of: B1
Assay: reverse-splicing fitness (ratio to wild type); higher = more active; in vitro selection; Mg2+ level not given
Outline: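 An in vitro group I ribozyme library with randomized positions was T7-transcribed and gel-purified. In triplicate, 10 pmol RNA in EPPS pH 7.5 was reacted with 50 pmoles of a 30-nt RNA substrate for 1 h at 37 °C across several added MgCl2 levels (1–48 mM), then stopped with EDTA. Products were reverse transcribed from a substrate-complementary primer, PCR-amplified and sequenced (HiSeq 4000). Fitness is a variant's read proportion after selection over that before, normalised to wild type.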

Variant	reverse-splicing fitness
C82A A111C A120C A145U C150G U176C	0.00803
C82A A111C A120C A145U C150G U176A	0.00604
C82A A111C A120C A145U C150G U176G	0.00392
C82A A111C A120C A145C C150G C169A	0.00854
C82A A111C A120C A145C C150G C169U	0.00879
C82A A111C A120C A145C C150G C169G	0.00631
C82A A111C A120G A145C C150G C169A U176G	0.00531
C82A A111C A120G A145C C150G C169A U176C	0.00612
C82A A111C A120G A145C C150G C169A U176A	0.00786
C82A A111C A120C A145U C150G C169U	0.01
C82A A111C A120C A145U C150G C169A	0.00977
C82A A111C A120C A145U C150G C169G	0.00675
C82A A111C A120G A145C C169A	0.00659
C82A A111C A120G A145C C169U	0.00846
C82A A111C A120G A145C C169G	0.00901
C82A A111C A120G A145C C150A U176C	0.0105
C82A A111C A120G A145C C150A U176G	0.00559
C82A A111C A120G A145C C150A U176A	0.0103
C82A A111C	0.228
C82A A111C A120C A145G C169A U176G	0.00684
C82A A111C A120C A145G C169A U176C	0.0288

Variant	reverse-splicing fitness
C82A A111C A120C A145G C169A U176A	0.0249
C82A A111C A120C A145G C150A C169U U176G	0.00795
C82A A111C A120C A145G C150A C169U U176C	0.0136
C82A A111C A120C A145G C150A C169U U176A	0.0154
C82A A111C A120G A145C C150A C169G	0.00754
C82A A111C A120G A145C C150A C169U	0.00671
C82A A111C A120G A145C C150A C169A	0.00794
C82A A111C A120C A145C C169A	0.00691
C82A A111C A120C A145C C169G	0.00972
C82A A111C A120C A145C C169U	0.0116
C82A A111C A120G A145C C150U C169G U176G	0.00558
C82A A111C A120G A145C C150U C169G U176C	0.0133
C82A A111C A120G A145C C150U C169G U176A	0.0217
C82A A111C A120C C150A	0.0114
C82A A111C A120C C150G	0.0074
C82A A111C A120C C150U	0.0169
C82A A111C A120C A145U C150A	0.00979
C82A A111C A120C A145U C150U	0.0202
C82A A111C A120C A145U C150G	0.00822
C82A A111C A120C C150A C169U U176A	0.0173
C82A A111C A120C C150A C169U U176C	0.015

Variant	reverse-splicing fitness
C82A A111C A120C C150A C169U U176G	0.00868
C82A A111C A120C A145C C150A C169G U176C	0.024
C82A A111C A120C A145C C150A C169G U176A	0.0296
C82A A111C A120C A145C C150A C169G U176G	0.00757
C82A A111C A120G A145G C150A C169A U176G	0.00667
C82A A111C A120G A145G C150A C169A U176A	0.0181
C82A A111C A120G A145G C150A C169A U176C	0.0231
C82A A111C A120C A145G C150U C169A U176G	0.00826
C82A A111C A120C A145G C150U C169A U176A	0.0159
C82A A111C A120C A145G C150U C169A U176C	0.0162
C82A A111C A120C C150G C169G U176G	0.00646
C82A A111C A120C C150G C169G U176C	0.00606
C82A A111C A120C C150G C169G U176A	0.00786
C82A A111C A120G A145C C169G U176A	0.0239
C82A A111C A120G A145C C169G U176G	0.00472
C82A A111C A120G A145C C169G U176C	0.0156
C82A A111C A120G A145C C150A	0.00818
C82A A111C A120G A145C C150G	0.00724
C82A A111C A120G A145C C150U	0.00926
C82A A111C A120C A145C C150U C169U U176C	0.0105
C82A A111C A120C A145C C150U C169U U176G	0.00738

Variant	reverse-splicing fitness
C82A A111C A120C A145C C150U C169U U176A	0.0135
C82A A111C A120C A145G C150A U176A	0.00956
C82A A111C A120C A145G C150A U176G	0.00865
C82A A111C A120C A145G C150A U176C	0.0232
C82A A111C A120C A145U C150U C169G	0.00764
C82A A111C A120C A145U C150U C169U	0.0124
C82A A111C A120C A145U C150U C169A	0.00985
C82A A111C A120C A145C C150U U176G	0.00571
C82A A111C A120C A145C C150U U176C	0.0125
C82A A111C A120C A145C C150U U176A	0.00941
C82A A111C A120C C150U C169A U176C	0.0126
C82A A111C A120C C150U C169A U176G	0.00849
C82A A111C A120C C150U C169A U176A	0.0146
C82A A111C A120G A145C C150G C169G U176A	0.00836
C82A A111C A120G A145C C150G C169G U176G	0.00475
C82A A111C A120G A145C C150G C169G U176C	0.00766
C82A A111C A120G A145C C150A C169A U176A	0.01
C82A A111C A120G A145C C150A C169A U176C	0.00778
C82A A111C A120G A145C C150A C169A U176G	0.00603
C82A A111C A120C A145U C150G C169A U176C	0.0125
